B1: CAMK2A (parent)
chain: ILLVGYPPFWDEDQHRLYKQIKAG
B2: PPP2R2B (parent)
chain: RNTKRDVTLEASRENSKPRAILKP

Variants of: B1
Assay: protein stability index of a GFP-peptide fusion (GPS, HEK-293T) (PSI 1-6); higher = more stable
Settings: c terminus: a fixed tail appended
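Further: lentivirally expressed fusions sorted by FACS into six bins by GFP to DsRed ratio, PSI derived from sequencing read proportions per bin multiplied by bin number.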

Protein stability index of substitutions, site by site:
Y18: A 2.09; Q 1.51; D 1.97; K 2.31; P 1.71; H 1.89; W 2.45; T 3.2; L 2.48; N 2.05; R 2.45; G 2.79; S 1.95; C 1.73; M 2.16; E 2.38; F 1.4; I 2.21; V 1.25
D13: R 2.19; M 3.08; F 3.02; T 2.2; Q 2.42; H 2.2; S 2.06; K 3.5; L 3.98; V 2.54; I 2.18; P 2.24
H15: P 2.6; E 2.14; C 3.07; F 2.5; V 2.84; K 1.24; L 2.16; N 2.2; W 2.08; Q 2.51; D 2.13; S 2.89; T 2.8; G 2.21; I 2.31; A 2.55
K22: D 1.97; I 2.55; V 2.15; N 2.6; H 1.52; A 2.87; F 2.94; Y 2.43; T 2.52; Q 3.46; R 1.91; M 2.6; G 1.63; P 2.74; S 3.22; E 1.96; W 2.2; C 2.31
K19: W 2.65; E 1.87; V 2.9; A 1.65; S 2.63; M 3.5; H 1.38; G 3.31; D 2.82; Y 3.14; I 2.67; T 1.72; N 3.09; Q 2.79; F 2.66; R 1.36; P 1.73
G24: V 2.81; H 2.08; W 1.96; C 2.27; S 2.52; Y 2.39; I 2.71; T 2.58; F 1.51; M 1.58; K 1.7; Q 3.66; L 1.8; D 1.87; A 2.05; E 1.36; N 3.14; R 2.4; P 1.65
Q20: W 2.02; T 1.62; L 2.6; C 1.94; E 2.18; N 1.83; H 2.86; F 2.69; A 1.78; M 2.36; P 1.39; I 1.96; R 2; V 3.11; S 1.86; K 1.56; G 2.1; D 1.9
R16: T 1.29; A 2.61; P 1.54; H 2.12; W 1.62; C 2.16; G 1.64; N 2.27; V 2.67; K 1.57; F 2.2; Y 3.24; D 2.63; S 2.5; E 2.2; M 2.07; Q 1.84; I 1.62; L 2.27
Q14: H 2.67; I 2.05; K 1.68; E 2.01; R 2.78; G 3.47; S 2.59; F 2.52; N 2.33; A 2.65; P 3.6; V 2.89; Y 2.54; W 1.57; T 2.98; D 2.32; L 2.35
A23: Q 2.82; V 1.98; E 2.26; R 2.21; H 1.58; S 2.46; Y 2.73; G 1.72; T 1.27; L 2.11; K 2.1; D 1.98; P 1.8; I 2.82; M 2.06; F 2.23; N 2.67; W 3.2
I21: W 2.4; R 2.05; Y 1.84; T 1.73; M 1.72; C 2.35; S 1.82; G 1.54; A 1.79; E 1.92; N 2.19; Q 2.28; L 2.31; P 1.42; F 3.06; K 1.65; D 1.99; V 1.89; H 1.47
L17: C 1.19; P 2.03; N 1.31; S 1.8; G 1.58; F 2.12; E 2.09; H 1.75; K 1.74; D 2.06; M 2.47; W 2.09; A 1.62; Q 2.3; T 2.14; Y 2.38; V 2.21; I 2.1; R 2.12

Variants of: B2
Assay: as above
Settings: c terminus: a fixed tail appended

Protein stability index: each site, then its substitutions
A20: R 4.66; I 4.32; K 5.04; V 4.38; Q 4.44
E14: Y 3.67; L 4.04; D 4.4; Q 4.97; V 3.79; T 4.58; I 3.72; K 4.12; A 4.66
T8: Y 4.31; N 4.98; G 4.54; M 4.34; I 4.35; S 4.3
N2: A 4.31; R 4.02; D 4.89
N15: H 3.94; V 4.45; C 4.13; F 4.66
D6: N 4.55; M 4.33; L 3.94; E 4.49; C 4.29
R19: P 4.79; E 5.04; F 4.12; V 4.72; T 4.52; Q 4.75; D 4.86; N 4.7; S 4.41; W 3.98; Y 4.21
K23: P 4.5; L 3.91; I 4.04; E 4.5; W 4.33; R 4.04; V 4.31; N 4.18; C 4.25
V7: A 4.19; E 4.46; G 4.83; L 4.42
L9: N 4.22; R 4.84; F 4.11
K17: R 4.38; Y 4.14; T 4.71
P18: I 4.27; S 4.72; H 4.11; V 4.32; Y 3.62
A11: H 4.8; L 3.35; M 4.36; S 4.67; Y 3.92; C 4.52
R1: D 4.97; G 4.9; M 4.44; P 4.27; H 4.72; Q 4.81; Y 4.22
P24: L 4; W 3.55; N 4.82
S12: I 4.07; V 4.33; H 4.73; L 3.96; C 3.95; T 4.79; R 4.41; P 4.45
I21: Q 4.8; T 4.5; D 5.3; A 4.8; P 5.15; S 4.78
L22: R 4.75; K 5.11; D 5.09
S16: K 4.23; R 4.24; F 4.38
R5: A 5.17; W 3.87; F 4.44; S 4.49
K4: P 4.88; M 4.71; Q 4.96; S 4.92; G 4.61
T3: C 4.55; D 4.81
E10: M 3.83; G 4.32; A 4.52; N 4.25; V 4.35; S 4.38; T 3.7
R13: C 4.16; F 3.98
